# Assay results reported in US11584938B2, “Plant EPSPS mutant containing L195P and S247G mutations and encoding gene and use thereof” (GEVOTO LLC, priority 2017, dated 2023).
# Substitutions are numbered along the chain they refer to.
# B1: G0: wild-type soybean EPSPS, amino acid sequence SEQ ID NO: 2; control (protein)
# chain: MAAAEKPSTAPEIVLEPIKDISGTITLPGSKSLSNRILLLAALSEGTTVVDNLLYSEDIHYMLGALRTLGLRVEDDQTTKQAIVEGCGGLFPTIKESKDEINLFLGNAGTAMRPLTAAVVAAGGNASYVLDGVPRMRERPIGDLVAGLKQLGADVDCFLGTNCPPVRVNGKGGLPGGKVKLSGSVSSQYLTALLMAAPLALGDVEIEIVDKLISVPYVEMTLKLMERFGVSVEHSGDWDKFLVHGGQKYKSPGNAFVEGDASSASYFLAGAAVTGGTITVNGCGTSSLQGDVKFAEVLEKMGAKVTWSENSVTVTGPPQDSSGQKVLQGIDVNMNKMPDVAMTLAVVALFANGQTTIRDVASWRVKETERMIAICTELRKLGATVEEGPDYCVITPPEKLNVTAIDTYDDHRMAMAFSLAACGDVPVTIKDPGCTRKTFPDYFEVLERFTRH
# modifications: Glycine max
# notes: control
# B2: G1: soybean EPSPS mutant, SEQ ID NO: 4, mutation L212(195)P (protein)
# chain: B1 chain with L212P
# B3: G2: soybean EPSPS mutant, SEQ ID NO: 6, merely containing the mutation P114(101)S; control (protein)
# chain: B1 chain with P114S
# System: transgenic rice plants
# Assay: glyphosate resistance of the EPSPS mutant in transgenic rice plants sprayed with Roundup 41% ammonium glyphosate
# Type: in vivo, rice (Nipponbare)
# Text: A method for detecting the glyphosate resistance of G1 (SEQ ID NO: 4) provided in Example 1, G3 (SEQ ID NO: 8) provided in Example 2, G4 (SEQ ID NO: 10) provided in Example 3, the soybean EPSPS mutant G5 (SEQ ID NO: 12) provided in Example 4, T1 (SEQ ID NO: 16) provided in Example 5, T3 (SEQ ID NO: 20) provided in Example 6, T4 (SEQ ID NO: 22) provided in Example 7, T5 (SEQ ID NO: 24) provided in Example 8, the wheat EPSPS mutant T6 (SEQ ID NO: 26) provided in Example 9, R1 (SEQ ID NO: 30) provided in Example 10, R3 (SEQ ID NO: 34) provided in Example 11, R4 (SEQ ID NO: 36) provided in Example 12, R5 (SEQ ID NO: 38) provided in Example 13, and the rice EPSPS mutant R6 (SEQ ID NO: 40) provided in Example 14 in the transgenic rice is as follows:
# The plasmids (containing the EPSPS mutation gene) of the monoclonal resistant bacteria of pADV5-EPSPS in Examples 1-7 were extracted by a conventional method, followed by double enzyme digestion by Pac1 and BstEII, the small fragments were collected, and then the small fragments were ligated by using T4 DNA ligase, to the pGVP1 vectors that had undergone the same double enzyme digestion, to obtain a pGVP1-EPSPS vector having a structure as shown in FIG. 23.
# EHA105 (Agrobacterium tumefaciens) competent cells were transformed by the pGVP1-EPSPS vector, and single colonies were picked up to perform bacterial colony PCR detection to identify positive strains; then the positive strains were inoculated into 1 mL of YEP culture medium containing 50 μg·mL^−1 kanamycin and 50 μg·mL^−1 rifampin to propagate, and then preserved at −80° C., or used for subsequent experiment.
# 400 μl of bacterium containing the target gene vector preserved at −80° C. was added to a culture dish of solid culture media containing YEP+50 μg/mL rifampin+50 μg/mL kanamycin, and cultured in the dark at 28° C. for 24 hours, then this bacterium was added to an infection culture medium, and this bacterial solution was adjusted to OD=0.2 as an infection liquid.
# Sterilization and pre-culturing: mature rice (Nipponbare) seeds were manually shelled, and full seeds without bacterial plaque were selected, and sterilized according to following steps: putting the seeds into a 50 ml sterile centrifuge tube, adding 70% alcohol for disinfection for 30 seconds, pouring out the alcohol, and cleaning the seeds once with sterile water; adding 10-20 ml of 2.6% sodium hypochlorite solution for soaking and sterilizing for 20 minutes, pouring out the sodium hypochlorite solution, and soaking and cleaning the seeds with sterile water for 6-7 times, 3 minutes each time.
# Induction and subculturing: the seeds were put on sterile filter paper for drying, and mature embryos were put in an induction culture medium with 12 embryos in each dish; the culture dishes were sealed with a sealing film after the operation was finished, the mature embryos were cultured in the dark at 30° C. for 21-28 days, calluses were transferred into a fresh culture medium, and continuously cultured for about 7-14 days, and spherical calluses with a size of 1-2 mm were taken as infection receptors.
# the calluses were inoculated into a centrifuge tube or a culture cup, the prepared Agrobacterium tumefaciens suspension liquid was added for infection for 10 minutes, wherein the calluses were shaken several times; the bacterial solution was poured out, the calluses were taken out, and placed on sterile filter paper to suck out the surface bacterial solution (about 30 minutes); and the calluses were put on sterile filter paper in a culture dish, and cultured in the dark at 25° C. for 2-3 days.
# Recovery culturing: the calluses having undergone co-culturing were inoculated in a recovery culture medium, and cultured in the dark at 30° C. for 5-7 days. First round of screening: the calluses were transferred to screening culture media 1 (S1) and cultured in the dark at 30° C. for 14 days. […]
# [1] = 1× dosage 1060 g/hectare glyphosate sprayed, recorded on 10th day
# [2] = 2× dosage 2120 g/hectare sprayed to plants surviving 1×, recorded 10 days later
# [3] = 5× dosage 5300 g/hectare sprayed to plants surviving 2×, recorded 10 days later
# [4] = 20× dosage 21200 g/hectare sprayed to plants surviving 5×, recorded 10 days later
Molecule,%++&+++ (percentage of plant having medium and high glyphosate resistance to the total number of plants observed) [1] [%],number of plants denoted by + (low glyphosate resistance) [1],number of plants denoted by ++ (medium glyphosate resistance) [1],number of plants denoted by +++ (high glyphosate resistance) [1],number of plants denoted by − (no glyphosate resistance) [1],"glyphosate resistance / survival of the rice transformed by the EPSPS, in words (1× glyphosate dosage)",%++&+++ (percentage of plant having medium and high glyphosate resistance to the total number of plants observed) [2] [%],number of plants denoted by + (low glyphosate resistance) [2],number of plants denoted by ++ (medium glyphosate resistance) [2],number of plants denoted by +++ (high glyphosate resistance) [2],number of plants denoted by − (no glyphosate resistance) [2],&++&+++ (percentage of plant having medium and high glyphosate resistance to the total number of plants observed) [3] [%],number of plants denoted by + (low glyphosate resistance) [3],number of plants denoted by ++ (medium glyphosate resistance) [3],number of plants denoted by +++ (high glyphosate resistance) [3],number of plants denoted by − (no glyphosate resistance) [3],&++&+++ (percentage of plant having medium and high glyphosate resistance to the total number of plants observed) [4] [%],number of plants denoted by + (low glyphosate resistance) [4],number of plants denoted by ++ (medium glyphosate resistance) [4],number of plants denoted by +++ (high glyphosate resistance) [4],also measured
B1,0.0,0,0,0,36,had no resistance and died,0.0,0,0,0,36,0.0,0,0,0,36,0.0,0,0,0,number of plants denoted by − (no glyphosate resistance) [4]: 36
B2,16.7,20,4,2,10,obviously superior to that of the rice seedlings transformed by G0,0.0,19,0,0,17,0.0,5,0,0,31,0.0,0,0,0,number of plants denoted by − (no glyphosate resistance) [4]: 36
B3,47.1,6,5,3,3,had certain resistance to glyphosate,0.0,0,0,0,17,0.0,0,0,0,17,0.0,0,0,0,"glyphosate resistance / survival of the rice transformed by the EPSPS, in words (2× glyphosate dosage): all rice seedlings containing the soybean EPSPS mutant G2 died; glyphosate resistance / survival of the rice transformed by the EPSPS, in words (5× glyphosate dosage): all rice seedlings containing the soybean EPSPS mutant G2 died; number of plants denoted by − (no glyphosate resistance) [4]: 17; glyphosate resistance / survival of the rice transformed by the EPSPS, in words (20× glyphosate dosage): all rice seedlings containing the soybean EPSPS mutant G2 died"
